From patent EP4506361A1 (Biotheus Inc., dated 2025)

Columns and labels:
[1] = target: T1, human c-Met on HEK293T cells overexpressing human c-Met (HEK293-Hu c-Met) (human, UniProt P08581 25-1390); experiment: flow cytometry on HEK293-Hu c-Met cells, first EC50 column
T1 construct: whole, on cells; also called human c-Met overexpression cells

[2] = target: T1, human c-Met on HEK293T cells …; experiment: flow cytometry on HEK293-Hu c-Met cells
[3] = target: T2, rhesus c-Met on HEK293T cells overexpressing rhesus c-Met (HEK293-Rhe c-Met) (rhesus monkey, UniProt F7H1K4 25-1381); experiment: flow cytometry on HEK293-Rhe c-Met cells, first EC50 column
T2 construct: also called rhesus monkey c-Met
T2 sequence (F7H1K4 entry or part of it limits assumed, form in doubt): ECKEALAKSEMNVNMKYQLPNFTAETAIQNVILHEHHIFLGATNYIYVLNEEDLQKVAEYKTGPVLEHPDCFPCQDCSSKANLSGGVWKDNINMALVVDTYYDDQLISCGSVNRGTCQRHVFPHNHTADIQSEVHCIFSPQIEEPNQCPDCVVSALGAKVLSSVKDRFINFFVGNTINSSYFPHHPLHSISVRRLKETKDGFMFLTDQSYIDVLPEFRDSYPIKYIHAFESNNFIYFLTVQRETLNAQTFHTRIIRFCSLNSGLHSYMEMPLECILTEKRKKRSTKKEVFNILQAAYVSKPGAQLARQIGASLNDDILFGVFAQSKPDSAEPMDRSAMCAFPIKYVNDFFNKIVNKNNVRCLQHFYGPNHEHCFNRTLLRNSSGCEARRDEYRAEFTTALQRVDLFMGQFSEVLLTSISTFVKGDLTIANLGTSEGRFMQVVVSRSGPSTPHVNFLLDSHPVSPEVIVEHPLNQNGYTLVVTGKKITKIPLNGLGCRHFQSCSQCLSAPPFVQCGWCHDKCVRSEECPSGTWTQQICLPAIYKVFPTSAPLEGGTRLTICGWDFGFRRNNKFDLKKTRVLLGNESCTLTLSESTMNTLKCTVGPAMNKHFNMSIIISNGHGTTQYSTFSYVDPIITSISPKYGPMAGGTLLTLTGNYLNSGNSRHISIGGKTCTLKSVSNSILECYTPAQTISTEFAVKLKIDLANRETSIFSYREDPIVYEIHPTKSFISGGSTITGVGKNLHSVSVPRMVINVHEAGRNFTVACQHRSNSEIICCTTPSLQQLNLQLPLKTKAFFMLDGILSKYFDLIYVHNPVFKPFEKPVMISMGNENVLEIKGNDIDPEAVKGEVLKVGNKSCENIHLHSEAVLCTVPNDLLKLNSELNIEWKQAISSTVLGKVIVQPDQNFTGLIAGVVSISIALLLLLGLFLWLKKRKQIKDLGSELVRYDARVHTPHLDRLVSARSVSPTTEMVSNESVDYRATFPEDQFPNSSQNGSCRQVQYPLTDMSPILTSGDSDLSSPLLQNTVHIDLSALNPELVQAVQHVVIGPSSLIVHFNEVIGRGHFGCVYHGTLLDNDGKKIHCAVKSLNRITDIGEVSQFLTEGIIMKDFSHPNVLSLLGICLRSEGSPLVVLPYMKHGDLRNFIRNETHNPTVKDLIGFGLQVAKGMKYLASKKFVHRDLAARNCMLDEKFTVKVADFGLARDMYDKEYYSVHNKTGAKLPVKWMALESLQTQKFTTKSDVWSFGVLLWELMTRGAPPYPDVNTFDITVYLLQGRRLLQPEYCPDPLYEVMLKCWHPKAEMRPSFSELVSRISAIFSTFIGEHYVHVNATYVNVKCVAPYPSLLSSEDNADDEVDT

[4] = target: T2, rhesus c-Met on HEK293T cells …; experiment: flow cytometry on HEK293-Rhe c-Met cells
[5] = target: T3, human c-Met protein (purchased from AcroBiosystems) (human, UniProt P08581 25-932); experiment: BLI (ForteBio), antibody on AHQ sensor, 100 nM human c-Met antigen, 1:1 model
T3 construct: Soluble antigen of the ForteBio assay; also called human c-Met antigen
T3 sequence (P08581 25-932 limits assumed): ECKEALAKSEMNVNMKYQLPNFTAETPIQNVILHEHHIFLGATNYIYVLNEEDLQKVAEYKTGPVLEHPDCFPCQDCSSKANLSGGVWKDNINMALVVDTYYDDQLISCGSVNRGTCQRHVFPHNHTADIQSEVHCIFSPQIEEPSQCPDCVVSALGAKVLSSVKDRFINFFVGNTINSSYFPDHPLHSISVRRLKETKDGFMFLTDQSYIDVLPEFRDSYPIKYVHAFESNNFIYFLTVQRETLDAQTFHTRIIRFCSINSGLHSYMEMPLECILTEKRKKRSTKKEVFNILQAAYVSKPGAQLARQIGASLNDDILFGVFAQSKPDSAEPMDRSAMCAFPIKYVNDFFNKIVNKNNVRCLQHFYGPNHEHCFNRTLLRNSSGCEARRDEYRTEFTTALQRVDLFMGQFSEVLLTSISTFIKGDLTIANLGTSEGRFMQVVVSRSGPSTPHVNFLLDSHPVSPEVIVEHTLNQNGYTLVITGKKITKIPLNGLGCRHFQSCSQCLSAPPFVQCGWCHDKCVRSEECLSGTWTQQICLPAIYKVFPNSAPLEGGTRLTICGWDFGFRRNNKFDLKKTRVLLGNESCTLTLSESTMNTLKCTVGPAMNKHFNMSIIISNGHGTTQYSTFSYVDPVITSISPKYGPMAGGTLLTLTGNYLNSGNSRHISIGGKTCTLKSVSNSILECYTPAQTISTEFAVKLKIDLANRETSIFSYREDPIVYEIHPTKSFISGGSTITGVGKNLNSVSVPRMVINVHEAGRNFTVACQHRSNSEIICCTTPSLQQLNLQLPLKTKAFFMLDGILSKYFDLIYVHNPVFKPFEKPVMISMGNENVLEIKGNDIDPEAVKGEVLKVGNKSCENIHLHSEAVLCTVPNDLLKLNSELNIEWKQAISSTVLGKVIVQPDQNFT

[6] = target: cynomolgus monkey c-Met protein (purchased from AcroBiosystems) (cynomolgus monkey, UniProt A0A2K5UM36 25-932); experiment: BLI (ForteBio), antibody on AHQ sensor, cynomolgus monkey c-Met protein in solution
Sequence of cynomolgus monkey c-Met protein (purchased from AcroBiosystems) (A0A2K5UM36 entry or part of it limits assumed, form in doubt): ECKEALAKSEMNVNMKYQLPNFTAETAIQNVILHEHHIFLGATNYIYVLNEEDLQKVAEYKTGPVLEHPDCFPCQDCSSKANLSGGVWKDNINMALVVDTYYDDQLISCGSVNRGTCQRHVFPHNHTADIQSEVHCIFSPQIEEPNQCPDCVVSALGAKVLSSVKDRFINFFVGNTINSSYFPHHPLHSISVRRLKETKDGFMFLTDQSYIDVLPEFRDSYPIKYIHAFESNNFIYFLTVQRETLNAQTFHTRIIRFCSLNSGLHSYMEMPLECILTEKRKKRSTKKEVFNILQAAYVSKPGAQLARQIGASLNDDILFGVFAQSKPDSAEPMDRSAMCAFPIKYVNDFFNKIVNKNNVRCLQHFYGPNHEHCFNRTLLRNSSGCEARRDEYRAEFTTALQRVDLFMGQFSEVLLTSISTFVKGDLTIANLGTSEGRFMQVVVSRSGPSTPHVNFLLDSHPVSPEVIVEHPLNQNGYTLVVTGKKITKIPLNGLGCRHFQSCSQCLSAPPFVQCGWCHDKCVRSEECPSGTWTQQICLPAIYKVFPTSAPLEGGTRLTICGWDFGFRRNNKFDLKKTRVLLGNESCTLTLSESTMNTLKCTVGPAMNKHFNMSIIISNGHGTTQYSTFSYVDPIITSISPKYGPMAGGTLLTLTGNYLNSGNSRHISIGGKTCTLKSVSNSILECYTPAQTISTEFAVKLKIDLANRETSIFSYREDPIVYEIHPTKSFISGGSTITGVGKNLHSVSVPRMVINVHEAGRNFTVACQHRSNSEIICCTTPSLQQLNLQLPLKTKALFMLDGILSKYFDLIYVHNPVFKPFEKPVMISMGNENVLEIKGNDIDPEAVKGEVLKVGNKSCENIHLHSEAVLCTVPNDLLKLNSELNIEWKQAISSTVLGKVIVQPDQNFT

T1 sequence (P08581 25-1390): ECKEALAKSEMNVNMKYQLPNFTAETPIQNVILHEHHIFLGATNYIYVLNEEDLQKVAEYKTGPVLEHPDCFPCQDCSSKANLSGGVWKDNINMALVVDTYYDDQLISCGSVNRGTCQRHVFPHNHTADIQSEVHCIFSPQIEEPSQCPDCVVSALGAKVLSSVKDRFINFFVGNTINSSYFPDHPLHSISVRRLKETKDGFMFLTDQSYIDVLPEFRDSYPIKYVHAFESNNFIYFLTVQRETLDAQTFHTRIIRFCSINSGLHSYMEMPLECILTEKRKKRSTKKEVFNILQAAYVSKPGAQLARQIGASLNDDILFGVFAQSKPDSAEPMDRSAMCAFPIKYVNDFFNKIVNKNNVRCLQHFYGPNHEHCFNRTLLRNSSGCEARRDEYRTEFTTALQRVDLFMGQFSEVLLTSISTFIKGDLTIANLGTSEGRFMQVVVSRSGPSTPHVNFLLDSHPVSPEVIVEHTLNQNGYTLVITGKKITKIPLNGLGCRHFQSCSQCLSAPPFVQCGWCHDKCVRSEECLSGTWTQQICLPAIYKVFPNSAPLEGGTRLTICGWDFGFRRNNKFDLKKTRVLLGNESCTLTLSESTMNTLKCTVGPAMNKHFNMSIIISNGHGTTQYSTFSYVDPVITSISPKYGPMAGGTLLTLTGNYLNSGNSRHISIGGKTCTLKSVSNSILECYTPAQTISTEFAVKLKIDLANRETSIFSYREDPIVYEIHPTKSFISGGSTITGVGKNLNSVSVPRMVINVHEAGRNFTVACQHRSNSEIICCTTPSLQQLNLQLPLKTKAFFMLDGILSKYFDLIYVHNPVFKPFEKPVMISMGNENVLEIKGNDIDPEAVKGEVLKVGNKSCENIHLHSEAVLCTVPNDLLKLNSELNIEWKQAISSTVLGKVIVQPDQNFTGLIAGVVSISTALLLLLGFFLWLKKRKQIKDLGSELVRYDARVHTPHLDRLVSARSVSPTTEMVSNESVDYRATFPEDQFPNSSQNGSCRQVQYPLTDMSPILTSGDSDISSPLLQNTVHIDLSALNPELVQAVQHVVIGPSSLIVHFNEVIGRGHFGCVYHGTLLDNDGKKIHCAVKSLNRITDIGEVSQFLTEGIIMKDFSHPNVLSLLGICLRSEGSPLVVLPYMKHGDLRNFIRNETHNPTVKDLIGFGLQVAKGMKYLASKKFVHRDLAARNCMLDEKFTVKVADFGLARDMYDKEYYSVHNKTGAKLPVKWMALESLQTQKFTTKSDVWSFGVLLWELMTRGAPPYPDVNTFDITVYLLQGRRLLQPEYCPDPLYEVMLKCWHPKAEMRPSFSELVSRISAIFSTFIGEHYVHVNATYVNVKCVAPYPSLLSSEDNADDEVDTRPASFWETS

Row | EC50 [1] [nM] | EC50 [2] [nM] | EC50 [3] [nM] | EC50 [4] [nM] | Kd [5] [nM] | koff [5] [s⁻¹] | kon [5] [M⁻¹ s⁻¹] | Kd [6] [nM] | koff [6] [s⁻¹] | kon [6] [M⁻¹ s⁻¹] | Binder
1 | 1.25 | 1.39 | 0.868 | 0.749 |  |  |  |  |  |  | LY2875358 single-arm antibody (antibody, human IgG1, kappa, L234A L235A, also called control antibody LY2875358) heavy: not shown light: DIQMTQSPSSLSASVGDRVTITCSVSSSVSSIYLHWYQQKPGKAPKLLIYSTSNLASGVPSRFSGSGSGTDFTLTISSLQPEDFATYYCQVYSGYPLTFGGGTKVEIKRTVAAPSVFIFPPSDEQLKSGTASVVCLLNNFYPREAKVQWKVDNALQSGNSQESVTEQDSKDSTYSLSSTLTLSKADYEKHKVYACEVTHQGLSSPVTKSFNRGEC not shown
2 |  | 0.765 |  | 1.06 | 9.76 | 0.00163 | 167000 | 16.2 | 0.00109 | 67300 | anti-c-Met single-arm antibody 223 (antibody, human IgG1, kappa, L234A L235A) heavy: not shown light: DIQLTQSPSSLSASVGDRVTITCRASQSIITYLNWYQQKPGKAPKLLIYAASSLQSGVPSRFSGSGSGTDFTLNISSLQPEDFATYYCQQANSLPYTFGQGTKVEIKRTVAAPSVFIFPPSDEQLKSGTASVVCLLNNFYPREAKVQWKVDNALQSGNSQESVTEQDSKDSTYSLSSTLTLSKADYEKHKVYACEVTHQGLSSPVTKSFNRGEC not shown
3 | 1.03 | 0.54 | 0.97 | 1.24 |  |  |  |  |  |  | Onartuzumab (antibody, human IgG1, kappa, L234A L235A, Control antibody, made from three plasmids in Expi-CHO cells; also called control antibody onartuzumab; antibody onartuzumab) heavy: not shown light: DIQMTQSPSSLSASVGDRVTITCKSSQSLLYTSSQKNYLAWYQQKPGKAPKLLIYWASTRESGVPSRFSGSGSGTDFTLTISSLQPEDFATYYCQQYYAYPWTFGQGTKVEIKRTVAAPSVFIFPPSDEQLKSGTASVVCLLNNFYPREAKVQWKVDNALQSGNSQESVTEQDSKDSTYSLSSTLTLSKADYEKHKVYACEVTHQGLSSPVTKSFNRGEC not shown
4 | 0.947 |  | 0.726 |  | 4.29 | 0.000548 | 128000 | 19 | 0.00259 | 136000 | anti-c-Met single-arm antibody 22 (antibody, human IgG1, kappa, L234A L235A) heavy: not shown light: DIVMTQSPSSVSASVGDRVTITCRASQGISSWLAWYQQKPGKAPKLLIYAASSLQSGVPSKFSGSGSGTEFTLTISSLQPEDFATYFCQQAYGFPLTFGGGTKVEIKRTVAAPSVFIFPPSDEQLKSGTASVVCLLNNFYPREAKVQWKVDNALQSGNSQESVTEQDSKDSTYSLSSTLTLSKADYEKHKVYACEVTHQGLSSPVTKSFNRGEC not shown
5 | 0.452 |  | 0.306 |  | 0.0293 | 6.71e-06 | 229000 | 1.16 | 0.000426 | 369000 | anti-c-Met single-arm antibody 136 (antibody, human IgG1, kappa, L234A L235A) heavy: not shown light: DIVMTQSPSSVSASVGDRVTITCRASQGISSWLAWYQQKPGKAPKLLIYAVSSLQSGVPSRFSGSGSGTDFTLTISSLQPEDFATYFCQQANSFPLTFGGGTKVEIKRTVAAPSVFIFPPSDEQLKSGTASVVCLLNNFYPREAKVQWKVDNALQSGNSQESVTEQDSKDSTYSLSSTLTLSKADYEKHKVYACEVTHQGLSSPVTKSFNRGEC not shown
6 | 1.9 |  | 1.46 |  | 6.01 | 0.00108 | 179000 | 9.7 | 0.0026 | 269000 | anti-c-Met single-arm antibody 74 (antibody, human IgG1, kappa, L234A L235A) heavy: not shown light: DIVMTQSPSSVSASVGDRVTITCRASQGINSWLAWYQQKPGKAPNLLIYAASSLQSGVPSRFSGRGSGTDFSLTISSLHPEDFATYYCQQAKGFPLTFGGGTKVEIKRTVAAPSVFIFPPSDEQLKSGTASVVCLLNNFYPREAKVQWKVDNALQSGNSQESVTEQDSKDSTYSLSSTLTLSKADYEKHKVYACEVTHQGLSSPVTKSFNRGEC not shown
7 |  | 0.732 |  | 0.592 | 1.68 | 0.000369 | 220000 | 2.92 | 0.000947 | 324000 | anti-c-Met single-arm antibody 187 (antibody, human IgG1, kappa, L234A L235A) heavy: not shown light: DIVMTQSPSSVSASVGDRVTITCRASQGISSWLAWYQQKPGKAPNLLIYAASNLPSGVPSRFSGSGSGTVFTLTISSLQPEDFATYYCQQSNSFPLTFGGGTKVEIKRTVAAPSVFIFPPSDEQLKSGTASVVCLLNNFYPREAKVQWKVDNALQSGNSQESVTEQDSKDSTYSLSSTLTLSKADYEKHKVYACEVTHQGLSSPVTKSFNRGEC not shown
8 | 0.323 | 0.396 | 0.241 | 0.2 |  |  |  |  |  |  | Amivantamab single-arm antibody (antibody, human IgG1, kappa, L234A L235A, also called control antibody Amivantamab) heavy: not shown light: DIQMTQSPSSVSASVGDRVTITCRASQGISNWLAWFQHKPGKAPKLLIYAASSLLSGVPSRFSGSGSGTDFTLTISSLQPEDFATYYCQQANSFPITFGQGTRLEIKRTVAAPSVFIFPPSDEQLKSGTASVVCLLNNFYPREAKVQWKVDNALQSGNSQESVTEQDSKDSTYSLSSTLTLSKADYEKHKVYACEVTHQGLSSPVTKSFNRGEC not shown
9 |  | 1.73 |  | 1.48 | 2.01 | 0.00037 | 184000 | 63.8 | 0.00192 | 30100 | anti-c-Met single-arm antibody 221 (antibody, human IgG1, kappa, L234A L235A) heavy: not shown light: EIVLTQSPGTLSLSPGERATLSCRASQSVSSSYLAWYQQKPGQAPRLLIYGPSSRATGIPDRFSGSGSGTDFTLTISSLQPADFASYYCQQSYITPYTFGQGTKVEIKRTVAAPSVFIFPPSDEQLKSGTASVVCLLNNFYPREAKVQWKVDNALQSGNSQESVTEQDSKDSTYSLSSTLTLSKADYEKHKVYACEVTHQGLSSPVTKSFNRGEC not shown
10 | 0.821 |  | 0.746 |  | 0.596 | 9.5e-05 | 160000 | 26.5 | 0.00151 | 56900 | anti-c-Met single-arm antibody 23 (antibody, human IgG1, kappa, L234A L235A) heavy: not shown light: DIVMTQSPSSLSASVGDRVTITCRASQSFSDYLNWYRQKPGKAPKLLLFAASSLQSGVPSRFSGSGSGTDFTLTISSLQPEDFATYYCQQSYSPPYTFGQGTKLEIKRTVAAPSVFIFPPSDEQLKSGTASVVCLLNNFYPREAKVQWKVDNALQSGNSQESVTEQDSKDSTYSLSSTLTLSKADYEKHKVYACEVTHQGLSSPVTKSFNRGEC not shown
